Results as given in patent US20250236878A1 (priority 2019, published 2025).
Read-outs that look alike come from different tables or passages of the source.

How the values were obtained:
[1] = tested on: corn hybrids Beck's 6127 BHMF and 6127 DVMF; conditions: in vivo
[2] = tested on: HLB-infected citrus trees; assay: Citrus trials of Examples 20-24: fruit yield, size, count and drop, average over orange and grapefruit trials; type: in vivo, Citrus sinesis; Citrus paradisi; conditions: trunk injection (Table 64)
Procedure: All fruit with a diameter greater than or equal to 1.6 inches (40 mm) were hand-picked and collected for each tree. The total “Fruit Weight” (in kilograms) per individual tree was measured and recorded. Trees with total fruit weights less than or greater than 2 standard deviations (2STDEV) from the trial mean were considered to be outliers and removed from the dataset. Fruit size was assessed as the “Average Weight per Fruit” in grams (weight of 20 random fruit per tree, divided by 20) and “Average Fruit Diameter” in millimeters, as described in Example 1. The “Average Fruit Count” per tree was assessed as the total “Fruit Weight” divided by “Average Weight per Fruit”. “Fruit Drop” was assessed as for Example 1. Fruit quality was assessed as for Example 2, with the exception that one set of fruit consisted for 15 total fruit, each corresponding to a sampling of 3 fruit from 5 trees of the same experimental treatment block. Each set of 15 fruit were weighed (gram; g) and then juiced together. Average yield, % fruit drop, fruit size, and juice quality for each of the tested compositions are described in Examples 20-24.

[3] = tested on: Citrus trees infected with Candidatus Liberibacter asiaticus; type: in vivo, Citrus x paradisi; conditions: […], trunk injection
[4] = tested on: Citrus trees infected with CLas; design: species or system Citrus sinesis; conditions: in vivo
[5] = tested on: Citrus trees infected with CLas; assay: Recovery composition trunk injection: 'Valencia' orange fruit yield (Examples 3, 19); type: in vivo, Citrus sinesis
[6] = tested on: Citrus trees infected with CLas; type: in vivo, Citrus x paradisi; Citrus sinesis; conditions: average of 'Ruby Red' and 'Valencia'
Text: Treatments as previously described in Example 3; β-1,3-Endoglucanase from barley SEQ ID NO: 731 (Treatment 1) and Bt.4Q7Flg22 from Bacillus thurigiensis SEQ ID NO: 226 (Treatment 5) increased fruit yield (kg/tree) as described in Table 56. Fruit quality, and juice quality of ‘Valencia’ oranges are described in Table 57.
For direct comparison of the treatment results between grapefruit (‘Ruby Red’) and orange (‘Valencia’) are referenced in Table 56 above.

[7] = tested on: Pseudomonas syringae pv. actinidiae (PSA-V); type: in vivo; conditions: at 6, 16 and 23 DAI; P<0.1
[8] = 'Valencia' orange, trunk injection

B1: ACC deaminase: 1-aminocyclopropane-1-carboxylate deaminase polypeptide with two substitutions relative to wild type (protein, listed as Bacillus thuringiensis)
chain: MNLAKFPRKKYTESYTPIEKLNNFSEALGGPTIYFKRDDLLGLTAGGNKTRKLEFLVADAQEKGADTLITAGGIQSNHCRLTLAAAVKEKMKCILVLEEGLEPEEKRDFNGNYFLYHLLGAENVIVVPNGADLMEEMNKVAKEVSEKGSTPYVIPVGGSNPTGAMGYVACAQEIMAQSFEQGIDFSSVVCVSGSGGMHAGLITGFSGTQSHIPVIGINVSRGKAEQEEKVAKLVDETSAHVGIPNFISRDAVTCFDEYVGPGYALPTPEMVEAVQLLAKTEGILLDPVYEGKAVAGLIDLIRKGKFNKEDNILFVHLGGSPALYANTSLFA
- average yield benefit over the control corn plants [1]: +7.16 flu/Ac

B2: Amylase from Bacillus subtilis 168: starch-degrading Amylase, trunk-injected at 92 U per tree (protein, UniProt P00691 42-659, looked up)
Alpha-amylase: LTAPSIKSGTILHAWNWSFNTLKHNMKDIHDAGYTAIQTSPINQVKEGNQGDKSMSNWYWLYQPTSYQIGNRYLGTEQEFKEMCAAAEEYGIKVIVDAVINHTTSDYAAISNEVKSIPNWTHGNTQIKNWSDRWDVTQNSLLGLYDWNTQNTQVQSYLKRFLDRALNDGADGFRFDAAKHIELPDDGSYGSQFWPNITNTSAEFQYGEILQDSASRDAAYANYMDVTASNYGHSIRSALKNRNLGVSNISHYASDVSADKLVTWVESHDTYANDDEESTWMSDDDIRLGWAVIASRSGSTPLFFSRPEGGGNGVRFPGKSQIGDRGSALFEDQAITAVNRFHNVMAGQPEELSNPNGNNQIFMNQRGSHGVVLANAGSSSVSINTATKLPDGRYDNKAGAGSFQVNDGKLTGTINARSVAVLYPDDIAKAPHVFLENYKTGVTHSFNDQLTITLRADANTTKAVYQINNGPETAFKDGDQFTIGKGDPFGKTYTIMLKGTNSDGVTRTEKYSFVKRDPASAKTIGYQNPNHWSQVNAYIYKHDGSRVIELTGSWPGKPMTKNADGIYTLTLPADTDTTNAKVIFNNGSAQVPGQNQPGFDYVLNGLYNDSGLSGSLPH
- average increase in fruit weight relative to control [2]: 5%

B3: SEQ ID NO: 731: callose-degrading β-1,3-endoglucanase from barley (Hordeum vulgare) (protein)
chain: GVCYGVIGNNLPSRSDVVQLYRSKGINGMRIYFADGQALSALRNSGIGLILDIGNDQLANIAASTSNAASWVQNNVRPYYPAVNIKYIAAGNEVQGGATQSILPAMRNLNAALSAAGLGAIKVSTSIRFDEVANSFPPSAGVFKNAYMTDVARLLASTGAPLLANVYPYFAYRDNPGSISLNYATFQPGTTVRDQNNGLTYTSLFDAMVDAVYAALEKAGAPAVKVVVSESGWPSAGGFAASAGNARTYNQGLINHVGGGTPKKREALETYIFAMFNENQKTGDATERSFGLFNPDKSPAYNIQF
modifications: Hordeum vulgare
- increased yield compared to the untreated control ([3]; harvested 20 months post-treatment): 4.1 kg per tree
- fruit size and ^oBrixc to Citric Acid ratio (Brix:CA) relative to the untreated control [4]: increased
- increased yield compared to the untreated control ([5]; 'Valencia' trees, trunk injection): 14.5 kg per tree
- yield, average relative to control ([5]; 'Valencia', combined average of 2 sites (Table 56)): 124%

B4: B-1,3-Endoglucanase from Barley (SEQ ID NO: 731) (protein)
chain: B3 chain
modifications: Hordeum vulgare
- Average Yield (Relative to Untreated), Average of 2 sites [6]: (124%)
- Average Yield (Relative to Untreated) [3]: (112%)
- Average Yield (kg per tree) [3]: 38.7 kg per tree
- Average Fruit Diameter (Relative to Untreated) [4]: (104%)
- Average Fruit Diameter (mm) [4]: 62.76 mm
- Brix:CA Ratio [4]: 12.01
- Brix:CA Ratio (Relative to Untreated) [4]: (+0.76)
- Average Yield (Relative to Untreated) [5, 8]: (136%)
- Average Yield (kg per tree) [5, 8]: 54.8 kg per tree

B5: β-1,3-Endoglucanase from Barley (SEQ ID NO: 731) (protein)
chain: B3 chain
modifications: Hordeum vulgare
- Average Yield (kg per tree) ([3]; harvested 20 months post-treatment, Bt.4Q7Flg22 0.33 mg/tree, endoglucanase 2600 U/tree, mixture 660 U + 660 U + 0.27 mg/tree): 38.7 kg per tree
- Average Yield (kg per tree) Relative to Untreated ([3]; untreated = 34.6): (112%)

B6: Serine Protease 2: serine protease 2 cloned from Bacillus subtilis, four substitutions relative to SEQ ID NO: 722 (protein, listed as Bacillus subtilis)
chain: SSKTSADLEKAEVFGDIDMTTSKKTTVIVELKEKSLAEAKEAGESQSKSKLKTARTQAKNKAIKAVKNGKVNREYEQVFSGFSMKLPANEIPKLLAVKDVKAVYPNVTYKTDNMKDKDVTISEDAVSPQMDDSAPYIGANDAWDLGYTGKGIKVAIIDTGVEYNHPDLKKNFGQYKGYDFVDNDYDPKETPTGDPRGEATDHGTHVAGTVAANGTIKGVAPDATLLAYRVLGPGGSGTTENVIAGVERAVQDGADVMNLSLGNSLNNPDWATSTALDWAMSEGVVAVTSNGNSGPNGWTVGSPGTSREAISVGATQLPLDEYAVTFGSYSSAKVMGYNKEDDVKALNNKEVELVEAGIGEAKDFEGKDLTGKVAVVKRGSIAFVDKADNAKKAGAIGMVVYNNLSGEIEANVPGMSVPTIKLSLEDGEKLVSALKAGETKTTFKLTVSKALGEQVADFSSRGPVMDTWMIKPDISAPGVNIVSTIPTHDPDHPYGYGSKQGTSMASPHIAGAVAVIKQAKPKWSVEQIKAAIMNTAVTLKDSDGEVYPHNAQGAGSARIMNAIKADSLVSPGSCSYGTFLKENGNETKNETFTIENQSSIRKSYTLEYSFNGSGISTSGTSRVVIPAHQTGKATARVKVNTKKTKAGTYEGTVIVREGGKTVAKVPTLLIVKEPDYPRVTSVSVSEGSVQGTYQIETYLPAGAEELAFLVYDSNLDFAGQAGIYKNQDKGYQYFDWDGTINGGTKLPAGEYYLLAYAANKGKSSQVLTEEPFTVE
- PSA-V leaf spot symptoms in comparison to the untreated control [7]: significantly reduced
